Laboratory results reported in US20250388702A1 (Dana-Farber, published 2025).
One block for each binder: values may come before it.

How the values were obtained:
Human KIR3DL3 [1] = target: T1, Human KIR3DL3 (human, UniProt Q8N743 26-410); assay: cell-based or functional assay
KIR2DS1 = target: T2, KIR2DS1 (UniProt Q14954 22-304, limits assumed); assay: HEK293 cell microarray
T2 construct: whole, on cells
Description: (§1) Replicate microarray slides expressing a complete KIR family cDNA panel were fixed and blocked with buffer containing PBS/0.5% BSA and incubated for 1 hour at room temperature with individual KIR3DL3 mAb hybridoma supernatants at 1:5, 1:25 and 1:250 dilutions in PBS/0.1% BSA. Cell arrays were washed with PBS and incubated for 1 hour at room temperature in PBS/0.1% BSA containing AF647-conjugated goat anti-mouse IgG (H+L) (Life Technologies, A21235). Slides were washed with PBS, dried, and imaged for ZsGreen1 and AF647 fluorescence.
as §1, with “In Table 4, replicate” for “Replicate”, “the” for “a complete”, “panel (as in FIG. 1A, FIG. 2B, and FIG. 2C)” for “panel”

KIR2DS3 = target: T3, KIR2DS3 (UniProt Q14952 22-304, limits assumed); assay: HEK293 cell microarray
T3 construct: whole, on cells
Description: as §1
as §1, with “In Table 4, replicate” for “Replicate”, “the” for “a complete”, “panel (as in FIG. 1A, FIG. 2B, and FIG. 2C)” for “panel”

KIR2DS2 = target: T4, KIR2DS2 (UniProt P43631 22-304, limits assumed); assay: HEK293 cell microarray
T4 construct: whole, on cells
Description: as §1
as §1, with “In Table 4, replicate” for “Replicate”, “the” for “a complete”, “panel (as in FIG. 1A, FIG. 2B, and FIG. 2C)” for “panel”

KIR2DS5 = target: T5, KIR2DS5 (UniProt Q14953 22-304, limits assumed); assay: HEK293 cell microarray
T5 construct: whole, on cells
Description: as §1
as §1, with “In Table 4, replicate” for “Replicate”, “the” for “a complete”, “panel (as in FIG. 1A, FIG. 2B, and FIG. 2C)” for “panel”

KIR3DL1 = target: T6, KIR3DL1 (UniProt P43629 22-444, limits assumed); assay: HEK293 cell microarray
T6 construct: whole, on cells
Description: as §1
as §1, with “In Table 4, replicate” for “Replicate”, “the” for “a complete”, “panel (as in FIG. 1A, FIG. 2B, and FIG. 2C)” for “panel”

KIR3DL2 = target: T7, KIR3DL2 (UniProt P43630 22-455, limits assumed); assay: HEK293 cell microarray
T7 construct: whole, on cells
Description: as §1
as §1, with “In Table 4, replicate” for “Replicate”, “the” for “a complete”, “panel (as in FIG. 1A, FIG. 2B, and FIG. 2C)” for “panel”

KIR2DL4 = target: T8, KIR2DL4 (UniProt Q99706 22-377, limits assumed); assay: HEK293 cell microarray
T8 construct: whole, on cells
Description: as §1
as §1, with “In Table 4, replicate” for “Replicate”, “the” for “a complete”, “panel (as in FIG. 1A, FIG. 2B, and FIG. 2C)” for “panel”

KIR3DS1 = target: T9, KIR3DS1 (UniProt Q14943 22-382, limits assumed); assay: HEK293 cell microarray
T9 construct: whole, on cells
Description: as §1
as §1, with “In Table 4, replicate” for “Replicate”, “the” for “a complete”, “panel (as in FIG. 1A, FIG. 2B, and FIG. 2C)” for “panel”

KIR2DL3 = target: T10, KIR2DL3 (UniProt P43628 22-341, limits assumed); assay: HEK293 cell microarray
T10 construct: whole, on cells
Description: as §1
as §1, with “In Table 4, replicate” for “Replicate”, “the” for “a complete”, “panel (as in FIG. 1A, FIG. 2B, and FIG. 2C)” for “panel”

KIR2DL2 = target: T11, KIR2DL2 (UniProt P43627 22-348, limits assumed); assay: HEK293 cell microarray
T11 construct: whole, on cells
Description: as §1
as §1, with “In Table 4, replicate” for “Replicate”, “the” for “a complete”, “panel (as in FIG. 1A, FIG. 2B, and FIG. 2C)” for “panel”

KIR2DL1 = target: T12, KIR2DL1 (UniProt P43626 22-348, limits assumed); assay: HEK293 cell microarray
T12 construct: whole, on cells
Description: as §1
as §1, with “In Table 4, replicate” for “Replicate”, “the” for “a complete”, “panel (as in FIG. 1A, FIG. 2B, and FIG. 2C)” for “panel”

KIR2DL5B = target: T13, KIR2DL5B (UniProt Q8NHK3 22-375, limits assumed); assay: HEK293 cell microarray
T13 construct: whole, on cells
Description: as §1
as §1, with “In Table 4, replicate” for “Replicate”, “the” for “a complete”, “panel (as in FIG. 1A, FIG. 2B, and FIG. 2C)” for “panel”

Human KIR3DL3 [2] = target: T1, Human KIR3DL3; assay: flow cytometry, KIR3DL3-transfected 300.19 cells
Human KIR3DL3 [3] = target: T1, Human KIR3DL3; assay: flow cytometry; blockade of HHLA2-mIgG2a binding to KIR3DL3-transfected 300.19 cells
Description: (§2) The indicated concentrations of KIR3DL3 mAbs were pre-incubated with KIR3DL3 transfected 300.19 cells for 30 minutes at 4° C. […] EC50 and IC50 analysis were conducted using GraphPad Prism®.

[4] = target: T14, Human KIR3DL3, Sino Biological Cat#: 16055-H08H (human, UniProt Q8N743 26-322); assay: BLI (Octet RED96), antibody captured on the sensor, antigen in solution, 1:1 model
T14 construct: Bought soluble antigen; also called KIR3DL3 (Octet antigen)
Description: Binding experiments were performed on Octat Red af 25″° C. The human antibodies were loaded onto Anti-higG Fe Capture biosensors and the mouse antibodies were loaded onto Anti-migG Fe Capture biosensors both for 300 seconds. The ligand loaded sensors were dipped into a 3-fold series dilution (starting at 300 nad) of the antigens (PD-1 and KIR3DL3) for 240 seconds followed by dissociation for 400 seconds. Kinetic constanta were calculated using a monovalent (1:1) binding model Antigen: Haman PD1, Sino Biological Cat #: HPLC-10377-HOSH.

Human KIR3DL3 [5] = target: T1, Human KIR3DL3; assay: flow cytometry, KIR3DL3-transfected 300.19 cells; remark: listed apart in the source
Human KIR3DL3 [6] = target: T1, Human KIR3DL3; assay: flow cytometry; blockade of HHLA2-mIgG2a binding to KIR3DL3-transfected cells
Description: as §2

T2 sequence (Q14954 22-304 limits assumed): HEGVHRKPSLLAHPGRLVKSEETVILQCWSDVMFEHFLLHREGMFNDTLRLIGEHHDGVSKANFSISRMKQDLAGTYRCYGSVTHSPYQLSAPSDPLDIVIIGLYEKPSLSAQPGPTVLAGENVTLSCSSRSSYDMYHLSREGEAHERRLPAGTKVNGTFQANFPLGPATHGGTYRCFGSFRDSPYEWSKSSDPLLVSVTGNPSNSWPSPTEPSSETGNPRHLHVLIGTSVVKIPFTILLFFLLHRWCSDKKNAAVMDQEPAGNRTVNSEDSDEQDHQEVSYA
T12 sequence (P43626 22-348 limits assumed): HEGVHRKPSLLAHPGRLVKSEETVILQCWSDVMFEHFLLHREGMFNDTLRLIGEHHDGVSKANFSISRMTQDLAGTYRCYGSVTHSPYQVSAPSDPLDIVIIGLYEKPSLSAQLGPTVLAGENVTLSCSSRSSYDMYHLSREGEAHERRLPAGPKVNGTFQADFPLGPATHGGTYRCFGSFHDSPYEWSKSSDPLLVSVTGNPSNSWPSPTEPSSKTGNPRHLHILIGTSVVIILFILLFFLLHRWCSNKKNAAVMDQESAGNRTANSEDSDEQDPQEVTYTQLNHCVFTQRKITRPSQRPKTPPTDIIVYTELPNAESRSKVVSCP
T10 sequence (P43628 22-341 limits assumed): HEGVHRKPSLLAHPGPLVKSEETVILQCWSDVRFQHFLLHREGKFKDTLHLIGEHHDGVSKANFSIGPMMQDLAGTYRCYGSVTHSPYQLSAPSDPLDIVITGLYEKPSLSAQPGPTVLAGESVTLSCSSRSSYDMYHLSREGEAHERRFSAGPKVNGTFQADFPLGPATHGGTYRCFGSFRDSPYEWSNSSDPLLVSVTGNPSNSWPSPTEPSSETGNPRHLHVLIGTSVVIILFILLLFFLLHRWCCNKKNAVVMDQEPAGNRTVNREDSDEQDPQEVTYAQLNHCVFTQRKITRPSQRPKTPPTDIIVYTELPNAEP
T4 sequence (P43631 22-304 limits assumed): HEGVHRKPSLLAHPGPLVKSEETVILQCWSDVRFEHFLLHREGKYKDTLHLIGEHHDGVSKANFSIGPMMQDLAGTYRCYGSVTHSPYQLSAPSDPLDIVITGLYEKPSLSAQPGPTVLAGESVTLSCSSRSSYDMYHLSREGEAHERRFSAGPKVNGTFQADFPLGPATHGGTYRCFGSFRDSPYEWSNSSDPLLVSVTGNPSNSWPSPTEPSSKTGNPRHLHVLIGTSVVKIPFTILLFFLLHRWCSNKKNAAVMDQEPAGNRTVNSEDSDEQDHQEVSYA
T3 sequence (Q14952 22-304 limits assumed): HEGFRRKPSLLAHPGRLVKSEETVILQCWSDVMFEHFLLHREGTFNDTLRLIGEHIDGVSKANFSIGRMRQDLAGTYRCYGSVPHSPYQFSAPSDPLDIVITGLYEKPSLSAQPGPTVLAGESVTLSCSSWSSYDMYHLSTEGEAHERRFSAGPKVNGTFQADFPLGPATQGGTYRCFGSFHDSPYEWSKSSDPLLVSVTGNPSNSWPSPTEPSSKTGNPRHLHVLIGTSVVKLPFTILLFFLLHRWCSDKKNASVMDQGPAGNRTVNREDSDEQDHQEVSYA
T6 sequence (P43629 22-444 limits assumed): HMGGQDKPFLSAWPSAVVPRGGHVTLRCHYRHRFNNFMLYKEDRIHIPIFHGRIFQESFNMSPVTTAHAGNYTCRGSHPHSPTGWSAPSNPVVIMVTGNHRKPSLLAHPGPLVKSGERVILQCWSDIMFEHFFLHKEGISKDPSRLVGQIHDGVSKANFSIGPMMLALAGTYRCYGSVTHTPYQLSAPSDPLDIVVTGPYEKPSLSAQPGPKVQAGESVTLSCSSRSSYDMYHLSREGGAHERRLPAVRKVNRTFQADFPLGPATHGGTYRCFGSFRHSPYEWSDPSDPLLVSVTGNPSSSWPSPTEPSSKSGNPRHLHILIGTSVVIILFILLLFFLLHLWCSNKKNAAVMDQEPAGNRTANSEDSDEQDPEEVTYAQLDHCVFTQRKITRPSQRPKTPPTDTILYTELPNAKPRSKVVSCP
T9 sequence (Q14943 22-382 limits assumed): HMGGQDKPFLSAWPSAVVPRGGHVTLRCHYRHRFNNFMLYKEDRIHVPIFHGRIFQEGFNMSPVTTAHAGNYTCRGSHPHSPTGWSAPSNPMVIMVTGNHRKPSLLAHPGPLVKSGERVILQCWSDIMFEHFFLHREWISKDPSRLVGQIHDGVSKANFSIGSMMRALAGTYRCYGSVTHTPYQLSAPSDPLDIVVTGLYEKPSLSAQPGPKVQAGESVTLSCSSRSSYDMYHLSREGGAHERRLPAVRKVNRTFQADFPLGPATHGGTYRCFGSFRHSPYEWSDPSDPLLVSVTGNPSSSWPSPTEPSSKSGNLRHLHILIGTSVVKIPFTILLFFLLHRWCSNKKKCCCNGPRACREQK
T13 sequence (Q8NHK3 22-375 limits assumed): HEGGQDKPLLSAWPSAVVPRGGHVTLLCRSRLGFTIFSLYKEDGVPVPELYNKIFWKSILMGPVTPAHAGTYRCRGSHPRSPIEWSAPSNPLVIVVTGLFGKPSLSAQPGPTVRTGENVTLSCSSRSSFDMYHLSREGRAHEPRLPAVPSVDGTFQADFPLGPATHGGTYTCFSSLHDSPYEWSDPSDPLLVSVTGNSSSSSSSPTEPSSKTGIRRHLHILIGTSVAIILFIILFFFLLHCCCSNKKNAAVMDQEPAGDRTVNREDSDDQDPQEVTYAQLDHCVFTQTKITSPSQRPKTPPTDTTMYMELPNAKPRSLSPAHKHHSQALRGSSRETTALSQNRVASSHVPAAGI
T14 sequence (Q8N743 other isoform, or with tags, fused parts or gaps H08H H08H limits assumed): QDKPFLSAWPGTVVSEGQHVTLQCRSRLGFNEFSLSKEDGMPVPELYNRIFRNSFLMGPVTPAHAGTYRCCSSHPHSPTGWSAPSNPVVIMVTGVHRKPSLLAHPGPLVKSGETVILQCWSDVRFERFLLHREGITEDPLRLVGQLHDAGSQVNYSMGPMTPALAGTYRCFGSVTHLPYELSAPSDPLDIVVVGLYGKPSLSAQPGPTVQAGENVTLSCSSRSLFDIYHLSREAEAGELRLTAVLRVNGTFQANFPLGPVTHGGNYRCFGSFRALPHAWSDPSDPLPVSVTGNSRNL
T7 sequence (P43630 22-455 limits assumed): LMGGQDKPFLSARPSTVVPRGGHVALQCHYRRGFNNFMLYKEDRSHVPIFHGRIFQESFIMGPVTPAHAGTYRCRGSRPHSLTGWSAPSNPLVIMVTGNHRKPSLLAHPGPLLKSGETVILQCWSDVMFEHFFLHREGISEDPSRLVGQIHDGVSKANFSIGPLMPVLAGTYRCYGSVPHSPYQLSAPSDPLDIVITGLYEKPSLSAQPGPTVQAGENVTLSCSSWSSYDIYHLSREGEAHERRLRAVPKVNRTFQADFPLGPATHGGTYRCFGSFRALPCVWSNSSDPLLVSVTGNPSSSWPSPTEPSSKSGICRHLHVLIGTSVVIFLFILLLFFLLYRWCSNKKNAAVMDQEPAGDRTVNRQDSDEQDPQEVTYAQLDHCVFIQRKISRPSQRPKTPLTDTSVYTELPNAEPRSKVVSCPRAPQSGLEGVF
T1 sequence (Q8N743 26-410 H321N limits assumed): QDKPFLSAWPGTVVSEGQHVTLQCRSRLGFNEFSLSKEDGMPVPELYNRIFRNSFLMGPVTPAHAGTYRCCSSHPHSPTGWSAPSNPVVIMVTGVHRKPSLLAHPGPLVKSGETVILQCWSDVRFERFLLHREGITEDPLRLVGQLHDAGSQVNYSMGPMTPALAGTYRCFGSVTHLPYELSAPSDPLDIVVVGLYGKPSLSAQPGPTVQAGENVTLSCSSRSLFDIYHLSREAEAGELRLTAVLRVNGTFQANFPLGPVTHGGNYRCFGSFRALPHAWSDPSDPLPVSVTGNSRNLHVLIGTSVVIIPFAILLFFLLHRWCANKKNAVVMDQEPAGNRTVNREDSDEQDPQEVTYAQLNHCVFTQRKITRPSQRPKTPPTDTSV
T11 sequence (P43627 22-348 limits assumed): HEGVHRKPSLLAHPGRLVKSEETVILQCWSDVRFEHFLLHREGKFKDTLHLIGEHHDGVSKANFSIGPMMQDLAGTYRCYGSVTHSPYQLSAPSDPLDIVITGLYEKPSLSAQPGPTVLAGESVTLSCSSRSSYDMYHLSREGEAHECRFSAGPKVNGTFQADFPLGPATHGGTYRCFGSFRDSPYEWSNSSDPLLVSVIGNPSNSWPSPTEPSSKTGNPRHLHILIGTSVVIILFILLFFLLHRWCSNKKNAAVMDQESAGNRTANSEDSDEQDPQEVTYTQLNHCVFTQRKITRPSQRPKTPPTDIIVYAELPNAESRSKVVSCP
T5 sequence (Q14953 22-304 limits assumed): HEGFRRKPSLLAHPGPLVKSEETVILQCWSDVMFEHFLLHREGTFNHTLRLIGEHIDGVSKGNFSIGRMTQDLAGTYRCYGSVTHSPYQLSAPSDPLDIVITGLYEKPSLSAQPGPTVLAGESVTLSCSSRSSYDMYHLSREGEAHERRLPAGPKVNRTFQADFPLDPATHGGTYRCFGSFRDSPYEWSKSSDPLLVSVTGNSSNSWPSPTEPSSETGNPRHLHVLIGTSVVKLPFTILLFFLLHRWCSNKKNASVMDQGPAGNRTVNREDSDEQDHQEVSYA
T8 sequence (Q99706 22-377 limits assumed): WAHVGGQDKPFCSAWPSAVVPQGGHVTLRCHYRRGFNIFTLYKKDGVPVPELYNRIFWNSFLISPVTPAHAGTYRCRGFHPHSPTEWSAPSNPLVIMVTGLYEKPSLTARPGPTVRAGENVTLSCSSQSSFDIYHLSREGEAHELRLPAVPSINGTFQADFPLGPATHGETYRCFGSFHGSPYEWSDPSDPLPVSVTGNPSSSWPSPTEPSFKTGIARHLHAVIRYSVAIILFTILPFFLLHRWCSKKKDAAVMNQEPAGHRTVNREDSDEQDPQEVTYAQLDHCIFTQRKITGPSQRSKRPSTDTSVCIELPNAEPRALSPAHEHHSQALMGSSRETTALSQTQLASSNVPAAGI

Jurkat IL-2 Luciferase Activation, EC50 (Human KIR3DL3 [1]): 1.3 µg/mL | Jurkat IL-2 Luciferase, Fold Activation (Human KIR3DL3 [1]): 14.9 fold | Kd (Human KIR3DL3 [2]): 0.46 µg/mL | IC50 (Human KIR3DL3 [3]): 0.21 µg/mL
B1: KIR3DL3 mAb 574.2.2D8.6.9 (antibody, IgG2b, V domains shown)
VH: DVQLVESGGGLVQPGGSRKLSCAASGFTFSYFGMHWVRRAPEKGLEWVAFISSDSTTIYYTDTVKGRFTISRDNPKNTLFLQMTSLRSEDTAIYYCARFYDGAMDYWGQGTSVTVST
VL: DIVMTQSQKFMSTSVGDRVSITCKASQSVRTAVAWYQQKPGQSPKVLIYLASNRHTGVPDRFTGSGSGTDFTLTISNVQSEDLADYFCLQHWNYPLTFGAGTKLELK
notes: Mouse hybridoma antibody, IgG2b; also called AVS-3702
binding result (KIR2DS1): no binding (tested: supernatant 1:5, 1:25, 1:250) | binding result (KIR2DS3): no binding (tested: supernatant 1:5, 1:25, 1:250) | binding result (KIR2DS2): no binding (tested: supernatant 1:5, 1:25, 1:250) | binding result (KIR2DS5): no binding (tested: supernatant 1:5, 1:25, 1:250) | binding result (KIR3DL1): no binding (tested: supernatant 1:5, 1:25, 1:250) | binding result (KIR3DL2): no binding (tested: supernatant 1:5, 1:25, 1:250) | binding result (KIR2DL4): no binding (tested: supernatant 1:5, 1:25, 1:250) | binding result (KIR3DS1): no binding (tested: supernatant 1:5, 1:25, 1:250) | binding result (KIR2DL3): no binding (tested: supernatant 1:5, 1:25, 1:250) | binding result (KIR2DL2): no binding (tested: supernatant 1:5, 1:25, 1:250) | binding result (KIR2DL1): no binding (tested: supernatant 1:5, 1:25, 1:250) | binding result (KIR2DL5B): no binding (tested: supernatant 1:5, 1:25, 1:250)

Kd [4]: 0.506 nM | koff [4]: 0.000118 s⁻¹ | kon [4]: 233000 M⁻¹ s⁻¹ | Jurkat IL-2 Luciferase Activation, EC50 (Human KIR3DL3 [1]): 1.25 µg/mL | Jurkat IL-2 Luciferase, Fold Activation (Human KIR3DL3 [1]): 17.1 fold | Kd (Human KIR3DL3 [2]): 0.43 µg/mL | EC50 (Human KIR3DL3 [5]): 0.43 µg/mL | IC50 (Human KIR3DL3 [6]): 0.42 µg/mL | IC50 (Human KIR3DL3 [3]): 0.16 µg/mL
B2: KIR3DL3 mAb 574.2.2F11.2.7.4 (antibody, IgG2b, V domains shown)
VH: B1 VH
VL: B1 VL
notes: Parental mouse hybridoma antibody, IgG2b; only variable domains given; also called AVS-3703
binding result (KIR2DS1): no binding (tested: supernatant 1:5, 1:25, 1:250) | binding result (KIR2DS3): no binding (tested: supernatant 1:5, 1:25, 1:250) | binding result (KIR2DS2): no binding (tested: supernatant 1:5, 1:25, 1:250) | binding result (KIR2DS5): no binding (tested: supernatant 1:5, 1:25, 1:250) | binding result (KIR3DL1): no binding (tested: supernatant 1:5, 1:25, 1:250) | binding result (KIR3DL2): no binding (tested: supernatant 1:5, 1:25, 1:250) | binding result (KIR2DL4): no binding (tested: supernatant 1:5, 1:25, 1:250) | binding result (KIR3DS1): no binding (tested: supernatant 1:5, 1:25, 1:250) | binding result (KIR2DL3): no binding (tested: supernatant 1:5, 1:25, 1:250) | binding result (KIR2DL2): no binding (tested: supernatant 1:5, 1:25, 1:250) | binding result (KIR2DL1): no binding (tested: supernatant 1:5, 1:25, 1:250) | binding result (KIR2DL5B): no binding (tested: supernatant 1:5, 1:25, 1:250)

Jurkat IL-2 Luciferase Activation, EC50 (Human KIR3DL3 [1]): 1.79 µg/mL | Jurkat IL-2 Luciferase, Fold Activation (Human KIR3DL3 [1]): 16.2 fold | Kd (Human KIR3DL3 [2]): 0.42 µg/mL | IC50 (Human KIR3DL3 [3]): 0.19 µg/mL
B3: KIR3DL3 mAb 574.2.2H1.11.6 (antibody, IgG2b, V domains shown)
VH: B1 VH
VL: B1 VL
notes: Mouse hybridoma antibody, IgG2b; only variable domains given; also called AVS-3704
binding result (KIR2DS1): no binding (tested: supernatant 1:5, 1:25, 1:250) | binding result (KIR2DS3): no binding (tested: supernatant 1:5, 1:25, 1:250) | binding result (KIR2DS2): no binding (tested: supernatant 1:5, 1:25, 1:250) | binding result (KIR2DS5): no binding (tested: supernatant 1:5, 1:25, 1:250) | binding result (KIR3DL1): no binding (tested: supernatant 1:5, 1:25, 1:250) | binding result (KIR3DL2): no binding (tested: supernatant 1:5, 1:25, 1:250) | binding result (KIR2DL4): no binding (tested: supernatant 1:5, 1:25, 1:250) | binding result (KIR3DS1): no binding (tested: supernatant 1:5, 1:25, 1:250) | binding result (KIR2DL3): no binding (tested: supernatant 1:5, 1:25, 1:250) | binding result (KIR2DL2): no binding (tested: supernatant 1:5, 1:25, 1:250) | binding result (KIR2DL1): no binding (tested: supernatant 1:5, 1:25, 1:250) | binding result (KIR2DL5B): no binding (tested: supernatant 1:5, 1:25, 1:250)
